Changes are numbered by the printed parent chain.
B1: Hu149-13 (antibody, human IgG1, V domains shown)
VH: EVQLVESGGGLVQPGGSLKLSCAASGFTFNTYAMNWVRQASGKGLEWVGRIRSKSNFYATAYAASVKGRFTISRDDSKNTAYLQMNSLKTEDTAVYYCTRGREYGRSYAMDYWGQGTLVTVSS
VL: DIVMTQSPLSLPVTPGEPASISCRSSKSLLHSNANTYLYWFLQKPGQSPQLLIYRMSNLASGVPDRFSGSGSGTDFTLKISRVEAEDVGVYYCMQHLEYPLTFGGGTKVELK
notes: human IgG1
B2: Hu149-19 (antibody, human IgG1, V domains shown)
VH: B1 VH with R106S
VL: B1 VL with E98K
notes: human IgG1
B3: Hu149-17 (antibody, human IgG1, V domains shown)
VH: B1 VH with E103D, R106S
VL: B1 VL with E98S
notes: human IgG1
B4: Hu149-22 (antibody, human IgG1, V domains shown)
VH: B1 VH with R106S, S107A
VL: B1 VL with E98K
notes: human IgG1
B5: Hu149-15 (antibody, human IgG1, V domains shown)
VH: B1 VH with S41P, E103D, R106S
VL: B1 VL
notes: human IgG1
B6: Hu149-14 (antibody, human IgG1, V domains shown)
VH: B1 VH with R106S, S107A
VL: B1 VL
notes: human IgG1
B7: Hu149-23 (antibody, human IgG1, V domains shown)
VH: B1 VH with S41P, R106S
VL: B1 VL with E98K
notes: human IgG1
B8: Hu149-20 (antibody, human IgG1, V domains shown)
VH: B1 VH with R102K, R106S
VL: B1 VL with E98K
notes: human IgG1
B9: Hu149-21 (antibody, human IgG1, V domains shown)
VH: B1 VH
VL: B1 VL with E98K
notes: human IgG1
B10: Hu149-16 (antibody, human IgG1, V domains shown)
VH: B1 VH with E103D, R106S
VL: B1 VL with E98K
notes: human IgG1
B11: 262C2G7 (antibody, V domains shown)
VH: DVHLQESGPGLVKPSQSLSLTCSVTGYSITSGYYWNWIRQFPGNKLEWMGYISYDGSNNYNPSLKNRISITRDISKNQFFLKLNSVTTEDTATYYCARQIGLRRGAMDYWGQGTSVTVSS
VL: DIQMTQSSSYLSVSLGGRVTITCKASDHINNWLAWYQQKPGNAPRLLISGSTSLKAGVASRFSGSGSGKDYTLTITSLQTEDVATYYCQQYWGIPFTFGGGTKLEIK
notes: purified murine hybridoma antibody
B12: 273H2G6 (antibody, V domains shown)
VH: B11 VH with H3Q, I100V
VL: B11 VL with T74S, G93S, F96Y
notes: as for B11
B13: 191E12H8 (antibody, V domains shown)
VH: B11 VH with H3Q
VL: B11 VL with N31T
notes: as for B11
B14: 234G9C12 (antibody, V domains shown)
VH: B11 VH with H3Q, I52T, L64F, Y109H
VL: B11 VL with K55R
notes: as for B11
B15: 348E2D11 (antibody, V domains shown)
VH: QVQLVETGGGLVRPGNSLKLSCVTSGFSFSNYRMHWLRQPPGKRLEWIAVITVKSDNYGANYAESVKGRFTISRDDSKSSVYLQMNRLREEDTATYYCSSLGRVAYWGQGTLVTVSA
VL: DIVMTQSQKFMFTSVGDRVSVTCKASQNVDTNVVWYQQKPGQSPKALIYSASSRYSGVPDRFTGSGSGTDFTLTISNVQSEDLAEYFCQQHNSFPLTFGAGTKLELI
notes: as for B11

target: T1, human CCR8 (human, UniProt P51685 1-355); assay: FACS on CHO-K1-human CCR8 cells
T1 construct: whole, on cells; also called hCCR8
T1 sequence (P51685 whole entry): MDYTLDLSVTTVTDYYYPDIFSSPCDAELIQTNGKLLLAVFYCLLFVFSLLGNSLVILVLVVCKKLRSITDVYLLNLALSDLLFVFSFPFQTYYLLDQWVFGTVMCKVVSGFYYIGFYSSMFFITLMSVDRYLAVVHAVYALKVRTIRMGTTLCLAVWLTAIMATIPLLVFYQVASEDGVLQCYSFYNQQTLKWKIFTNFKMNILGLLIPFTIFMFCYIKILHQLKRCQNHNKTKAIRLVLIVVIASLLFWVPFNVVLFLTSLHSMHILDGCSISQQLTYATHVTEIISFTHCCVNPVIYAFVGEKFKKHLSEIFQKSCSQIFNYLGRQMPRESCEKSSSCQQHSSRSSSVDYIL

Row | Binder | EC50 | Max MFI
1 | B1 | 100 pM | 653000 MFI
2 | B2 | 161 pM | 666000 MFI
3 | B3 | 75.5 pM | 645000 MFI
4 | B4 | 216 pM | 793000 MFI
5 | B5 | 128 pM | 627000 MFI
6 | B6 | 62.6 pM | 663000 MFI
7 | B7 | 265 pM | 816000 MFI
8 | B8 | 129 pM | 751000 MFI
9 | B9 | 642 pM | 794000 MFI
10 | B10 | 65.9 pM | 672000 MFI

target: T2, cynomolgus CCR8 (cynomolgus, UniProt G7NYJ2 1-355); assay: FACS on HEK293-cynomolgus CCR8 cells
T2 construct: whole, on cells
T2 sequence (G7NYJ2 entry or part of it): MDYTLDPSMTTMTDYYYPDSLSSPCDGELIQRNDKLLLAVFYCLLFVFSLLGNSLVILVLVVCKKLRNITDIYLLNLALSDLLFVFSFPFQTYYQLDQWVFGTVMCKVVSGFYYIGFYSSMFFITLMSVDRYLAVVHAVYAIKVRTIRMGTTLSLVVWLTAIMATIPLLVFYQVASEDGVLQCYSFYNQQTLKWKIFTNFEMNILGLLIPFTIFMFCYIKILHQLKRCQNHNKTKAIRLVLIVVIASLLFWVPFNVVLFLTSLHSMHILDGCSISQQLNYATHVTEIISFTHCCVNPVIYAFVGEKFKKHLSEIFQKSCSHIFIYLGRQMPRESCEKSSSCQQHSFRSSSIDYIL

Row | Binder | EC50 | Max MFI
11 | B1 | 193 pM | 4.37e+06 MFI
12 | B2 | 214 pM | 3.95e+06 MFI
13 | B3 | 123 pM | 4.11e+06 MFI
14 | B4 | 462 pM | 4.25e+06 MFI
15 | B5 | 282 pM | 3.93e+06 MFI
16 | B6 | 157 pM | 4.42e+06 MFI
17 | B7 | 369 pM | 4.32e+06 MFI
18 | B8 | 158 pM | 4.02e+06 MFI
19 | B9 | 946 pM | 4.15e+06 MFI
20 | B10 | 142 pM | 3.8e+06 MFI

target: T1, human CCR8; assay: FACS on HuT78 cells (endogenous human CCR8)
Method: HuT78 cells expressing endogenous human CCR8 were used for determining binding affinities of selected affinity matured anti-CCR8 antibodies. Briefly, a total of […] cells for each well were seeded in 96-well plates and washed with FACS buffer (DPBS containing […]) for once. […] Cells were incubated with 50 μL of diluted antibodies at 4° C. for 1 hour. After primary antibody incubation, cells were washed for 3 times by FACS buffer. Then, cells were stained by Alexa Fbu647 labeled anti-human IgG secondary antibody (Jackson ImmunoResearch, #109606170) at 1:600 dilution in FACS buffer for 0.5 hour at 4° C. After 3 times washed, flow cytometry (Sartourius, iQue3) was performed to measure the binding affinities of antibodies. […]

Row | Binder | Max MFI | EC50
21 | B1 | 39100 MFI | –
22 | B2 | 187000 MFI | –
23 | B3 | 29600 MFI | –
24 | B4 | 173000 MFI | –
25 | B5 | 21300 MFI | 108 pM
26 | B6 | 28600 MFI | 184 pM
27 | B7 | 161000 MFI | –
28 | B8 | 253000 MFI | –
29 | B9 | 240000 MFI | –
30 | B10 | 228000 MFI | –

target: T1, human CCR8; assay: FACS, competition with CCL1 on CHO-K1-human CCR8 cells

Row | Binder | IC50 | Max Inhibition (%)
31 | B1 | 84.1 pM | 102%
32 | B2 | 168 pM | 100%
33 | B3 | 69.8 pM | 100%
34 | B4 | 459 pM | 101%
35 | B5 | 104 pM | 99.3%
36 | B6 | 81.6 pM | 100%
37 | B7 | 259 pM | 103%
38 | B8 | 147 pM | 100%
39 | B9 | 796 pM | 101%
40 | B10 | 114 pM | 101%

target: T1, human CCR8; assay: FACS, competition with AF647-human CCL1 on CHO-K1-human CCR8 cells
Method: (§1) Antibodies were prepared with 3-fold serial dilution ranging from 200 nM to 0.01 nM in FACS buffer. Then, cells were washed by FACS buffer for three times after incubation. […] FlowJo software was used for analysis. Data was plotted as the logarithm of antibody concentration versus mean fluorescence signals. IC₅₀ values were determined in GraphPad Prism 8 (GraphPad Software) using a log(agonist) vs. response-Variable slope (4 parameters) curve fit.

Row | Binder | IC50 | Max Inhibition (%)
41 | B11 | 1570 pM | 95.6%
42 | B12 | 2480 pM | 91.3%
43 | B13 | 13300 pM | 89.7%
44 | B14 | 1340 pM | 96.8%
45 | B15 | 231 pM | 95%

target: T1, human CCR8; assay: FACS, competition with AF647-human CCL1 on HEK293-human CCR8 cells
Method: as §1

Row | Binder | IC50 | Max Inhibition (%)
46 | B11 | 632 pM | 86.1%
47 | B12 | 782 pM | 85.8%
48 | B13 | 934 pM | 85.6%
49 | B14 | 812 pM | 94%
50 | B15 | 368 pM | 100%

From patent US20250034266A1 (ZAI LAB SHANGHAI, published 2025)
